Measured values reported in US20040141968A1 (published 2004).

Legend:
[1] = biological target: T1, HSV-1 glycoprotein B, soluble (HSV-1, UniProt P10211 31-730); assay: SPR; DC-SIGN CRD injected over immobilised HSV-1 gB
T1 construct: also called HSV-1 gB; gB HSV

HIV-1 gp120 (MN isolate) [2] = biological target: T2, HIV-1 gp120 (MN isolate) (HIV-1 (MN isolate), UniProt P05877 32-513, biotinylated when used as the labelled ligand on cells; unlabelled as competitor and on the SPR chip); assay: SPR (Biacore); DC-SIGN CRD injected over immobilised HIV-1 gp120; from koff/kon
T2 construct: domain: gp120; Unlabelled gp120 came from the NIBSC repository; also called biotinylated HIV-1 gp120; HIV-1 Env glycoprotein 120

HIV-1 gp120 (MN isolate) [3] = biological target: T2, HIV-1 gp120 (MN isolate); assay: SPR (Biacore); DC-SIGN CRD injected over immobilised HIV-1 gp120; Langmuir fit, average
HIV-1 gp120 (MN isolate) [4] = biological target: T2, HIV-1 gp120 (MN isolate); assay: flow cytometry; biotinylated protein on transfected HEK 293T cells, PE-streptavidin
[5] = biological target: T3, biotinylated Bovine Serum Albumine (bovine, UniProt P02769 25-607); assay: flow cytometry; biotinylated BSA on HEK 293T cells transfected with DC-SIGN, PE-streptavidin
T3 construct: also called BSA; biotinylated-BSA
T3 sequence (P02769 25-607 limits assumed): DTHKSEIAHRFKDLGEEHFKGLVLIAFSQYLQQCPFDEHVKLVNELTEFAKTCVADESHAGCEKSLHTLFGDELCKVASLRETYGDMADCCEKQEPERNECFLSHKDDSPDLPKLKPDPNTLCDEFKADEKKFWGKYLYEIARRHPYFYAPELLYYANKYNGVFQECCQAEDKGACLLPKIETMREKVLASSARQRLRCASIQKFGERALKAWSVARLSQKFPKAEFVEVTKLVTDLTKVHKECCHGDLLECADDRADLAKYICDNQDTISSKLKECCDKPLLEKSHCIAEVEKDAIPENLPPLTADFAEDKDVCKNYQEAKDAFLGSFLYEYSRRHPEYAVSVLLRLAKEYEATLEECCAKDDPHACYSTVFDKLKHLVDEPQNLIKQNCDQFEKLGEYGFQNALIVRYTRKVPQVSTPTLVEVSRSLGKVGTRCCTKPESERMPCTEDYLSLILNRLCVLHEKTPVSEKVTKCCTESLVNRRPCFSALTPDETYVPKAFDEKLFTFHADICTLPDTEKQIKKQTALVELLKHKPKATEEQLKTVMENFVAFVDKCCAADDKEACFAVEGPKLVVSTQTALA

[6] = biological target: T3, biotinylated Bovine Serum Albumine; assay: flow cytometry; biotinylated BSA on HEK 293T cells transfected with DC-SIGNR, PE-streptavidin

B1: recombinant soluble CRD of DC-SIGN (amino acids 254-404) (receptor)
chain: HPCPWEWTFFQGNCYFMSNSQRNWHDSITACKEVGAQLVVIKSAEEQNFLQLQSSRSNRFTWMGLSDLNQEGTWQWVDGSPLLPSFKQYWNRGEPNNVGEEDCAEFSGNGWNDDKCNLAKFWICKKSAASCSRDEEQFLSPAPATPNPPPA
notes: range 254-404; Purified on Ni-NTA and mannose-agarose; also called DC-SIGN CRD; recombinant soluble CRD domain of DC-SIGN
binding result [1]: no binding (tested: 0.13 to 1 µM) | Kd (HIV-1 gp120 (MN isolate) [2]): 300 nM | koff (HIV-1 gp120 (MN isolate) [3]): 0.00101 s⁻¹ | kon (HIV-1 gp120 (MN isolate) [3]): 3330 M⁻¹ s⁻¹

B2: human DC-SIGN (DC-Specific ICAM-Grabbing Nonintegrin) expressed at the cell surface (receptor, UniProt Q9NNX6 1-404, looked up)
chain: MSDSKEPRLQQLGLLEEEQLRGLGFRQTRGYKSLAGCLGHGPLVLQLLSFTLLAGLLVQVSKVPSSISQEQSRQDAIYQNLTQLKAAVGELSEKSKLQEIYQELTQLKAAVGELPEKSKLQEIYQELTRLKAAVGELPEKSKLQEIYQELTWLKAAVGELPEKSKMQEIYQELTRLKAAVGELPEKSKQQEIYQELTRLKAAVGELPEKSKQQEIYQELTRLKAAVGELPEKSKQQEIYQELTQLKAAVERLCHPCPWEWTFFQGNCYFMSNSQRNWHDSITACKEVGAQLVVIKSAEEQNFLQLQSSRSNRFTWMGLSDLNQEGTWQWVDGSPLLPSFKQYWNRGEPNNVGEEDCAEFSGNGWNDDKCNLAKFWICKKSAASCSRDEEQFLSPAPATPNPPPA
notes: whole, on cells; On transduced THP-1, HeLa and HEK 293T cells, and naturally on monocyte-derived dendritic cells; For HEK 293T the cDNA was in pcDNA3 myc-His (version A); also called CD209; DC-SIGN^+ THP-1 cells
binding result (HIV-1 gp120 (MN isolate) [4]): binds | binding result [5]: no binding

B3: DC-SIGNR expressed on transiently transfected HEK 293T cells (receptor, human, UniProt Q9H2X3 1-399, looked up)
chain: MSDSKEPRVQQLGLLEEDPTTSGIRLFPRDFQFQQIHGHKSSTGCLGHGALVLQLLSFMLLAGVLVAILVQVSKVPSSLSQEQSEQDAIYQNLTQLKAAVGELSEKSKLQEIYQELTQLKAAVGELPEKSKLQEIYQELTRLKAAVGELPEKSKLQEIYQELTRLKAAVGELPEKSKLQEIYQELTRLKAAVGELPEKSKLQEIYQELTELKAAVGELPEKSKLQEIYQELTQLKAAVGELPDQSKQQQIYQELTDLKTAFERLCRHCPKDWTFFQGNCYFMSNSQRNWHDSVTACQEVRAQLVVIKTAEEQNFLQLQTSRSNRFSWMGLSDLNQEGTWQWVDGSPLSPSFQRYWNSGEPNNSGNEDCAEFSGSGWNDNRCDVDNYWICKKPAACFRDE
notes: whole, on cells
binding result (HIV-1 gp120 (MN isolate) [4]): binds | binding result [6]: no binding
